Positions count from the first letter of the chain named. Where two headings read alike, the source gives them in different places.

The target of experiment [1] is T1, human CD3ε/δ-Fc fusion protein (soluble recombinant CD3ε/δ complex) (human, UniProt P04234 22-105).
T1 construct: also called huCD3ε/δ; huCD3; not shown: hinge, CH2, CH3 of human IgG with tag
Put plainly: SPR Biacore, CODV-Fab. The procedure:
(§1) Binding affinities of anti-CD3 binding Fabs or CODV-Fabs were measured by surface plasmon resonance (SPR) using a Biacore3000 instrument (GE Healthcare). Assay buffer was HBS-EP (BR-1001-88, GE Healthcare). Capture of CD3ε/δ-Fc fusion proteins was achieved using the human antibody capture kit (GE Healthcare). […] The CD3εδ-Fc fusions proteins were captured at 10 μl/min to approx. 70 RU to yield Rmax values of 30 RU. Binding kinetics with the anti-CD3 Fabs or CODV-Fabs was measured at 30 μl/min for 240 sec. and 600 sec. for association and dissociation phase, respectively. Twofold dilutions of Fabs from 3 to 400 nM in assay buffer were used. All Fab concentrations were run in duplicate together with duplicate buffer blanks for double referencing. Regeneration of the capture surface was performed with a 1 min injection of 3M MgCl2 solution at 30 μl/min. For data analysis the BIAevaluation software v.4.1 (GE Healthcare) was used. Data were fit globally using a 1:1 Langmuir model with mass transfer.

In experiment [2] the target is T1, human CD3ε/δ-Fc fusion protein (soluble …). Put plainly: SPR Biacore, CODV-Fab on recombinant CD3ε/δ. As for the experimental part: as §1
The target of experiment [3] is T2, human CD123 (IL3RA) on cells (human, UniProt P26951 19-378). Put plainly: cell-based or functional assay.
Experiment [4] deals with T1, human CD3ε/δ-Fc fusion protein (soluble …). As to the kind of experiment: SPR Biacore.
In experiment [5] the target is T3, human CD123 Strep-II tagged Fc-fusion protein (human).
T3 construct: also called human CD123-Fc; recombinant CD123
Put plainly: SPR Biacore.

The target of experiment [6] is T2, human CD123 (IL3RA) on cells. As to the kind of experiment: cell-based or functional assay. The source holds these as a separate data set.
Experiment [7] has the same target. Put plainly: cell-based or functional assay. This is another data set of the same source.
Experiment [8] deals with T4, human CD3 (TCR complex) on primary human T cells or Jurkat cells (human, UniProt P07766 23-207). As to the kind of experiment: cell-based or functional assay.
Experiment [9] has as its target T4, human CD3 (TCR complex) on primary …. As to the kind of experiment: cell-based or functional assay. The source holds these as a separate data set.
Experiment [10] addresses T1, human CD3ε/δ-Fc fusion protein (soluble …). As to the kind of experiment: SPR Biacore. The source holds these as a separate data set.
The target of experiment [11] is T3, human CD123 Strep-II tagged Fc-fusion …. Put plainly: SPR Biacore. This is another data set of the same source.

T3 sequence (chain, as listed by the source limits assumed): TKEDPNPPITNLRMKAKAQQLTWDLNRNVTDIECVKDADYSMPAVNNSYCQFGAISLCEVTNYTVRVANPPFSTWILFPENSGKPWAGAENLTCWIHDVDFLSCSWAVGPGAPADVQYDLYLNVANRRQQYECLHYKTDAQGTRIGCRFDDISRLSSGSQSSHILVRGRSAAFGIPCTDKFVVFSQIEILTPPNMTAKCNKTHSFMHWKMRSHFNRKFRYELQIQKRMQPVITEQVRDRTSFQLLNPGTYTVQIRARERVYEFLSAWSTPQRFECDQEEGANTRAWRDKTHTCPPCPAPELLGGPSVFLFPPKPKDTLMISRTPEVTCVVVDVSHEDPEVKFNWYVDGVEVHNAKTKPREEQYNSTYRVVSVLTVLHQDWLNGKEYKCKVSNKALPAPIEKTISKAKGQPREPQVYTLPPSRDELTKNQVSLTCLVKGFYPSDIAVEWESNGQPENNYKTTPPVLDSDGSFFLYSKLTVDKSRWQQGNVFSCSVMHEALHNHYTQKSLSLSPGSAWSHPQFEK
T1 sequence (chain, as listed by the source mutant, chain 1 of 2): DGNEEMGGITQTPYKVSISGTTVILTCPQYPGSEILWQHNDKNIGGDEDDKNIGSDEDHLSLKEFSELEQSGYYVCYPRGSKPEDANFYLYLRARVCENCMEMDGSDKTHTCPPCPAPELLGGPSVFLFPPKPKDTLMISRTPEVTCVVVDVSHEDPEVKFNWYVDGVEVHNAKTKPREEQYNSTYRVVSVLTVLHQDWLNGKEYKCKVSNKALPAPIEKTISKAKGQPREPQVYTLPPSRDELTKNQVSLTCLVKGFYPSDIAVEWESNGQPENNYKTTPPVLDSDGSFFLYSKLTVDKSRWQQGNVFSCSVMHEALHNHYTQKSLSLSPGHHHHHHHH
T1 sequence (P04234 22-105, stated change not applied, chain 2 of 2): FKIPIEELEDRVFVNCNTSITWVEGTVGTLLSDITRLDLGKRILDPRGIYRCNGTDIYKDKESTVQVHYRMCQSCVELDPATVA
T2 sequence (P26951 19-378): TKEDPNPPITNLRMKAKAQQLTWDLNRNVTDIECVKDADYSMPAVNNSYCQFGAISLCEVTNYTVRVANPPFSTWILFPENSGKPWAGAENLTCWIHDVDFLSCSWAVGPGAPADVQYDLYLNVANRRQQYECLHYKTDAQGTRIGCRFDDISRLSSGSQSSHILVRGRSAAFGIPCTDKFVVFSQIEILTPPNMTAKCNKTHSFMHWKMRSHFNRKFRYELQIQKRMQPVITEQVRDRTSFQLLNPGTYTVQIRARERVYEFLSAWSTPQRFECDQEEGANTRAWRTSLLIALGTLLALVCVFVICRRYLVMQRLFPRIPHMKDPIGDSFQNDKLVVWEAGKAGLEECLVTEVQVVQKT
T4 sequence (P07766 23-207, one chain of several): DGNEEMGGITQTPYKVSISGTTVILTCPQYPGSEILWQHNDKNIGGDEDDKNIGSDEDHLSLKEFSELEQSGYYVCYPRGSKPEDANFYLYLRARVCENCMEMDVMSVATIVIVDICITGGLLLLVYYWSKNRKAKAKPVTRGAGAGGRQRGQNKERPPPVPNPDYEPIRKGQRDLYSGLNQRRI

B1: CODV-Fab 7G3x20G6 antibody-like binding protein (bispecific antibody)
light: DVVMTQTPVSLSVSLGGQVSISCRSSQSLVHNNGNTYLSWYLQKPGQSPQSLIYKVSNRFSGFSDRFSGSGSGTDFTLKISRVDPDDLGVYYCGQGTQYPFTFGSGTKLEIKGQPKAAPDFVMTQSPSSLTVTAGEKVTMSCKSSQSLLNSGNQKNYLTWYLQKPGQPPKLLIYWASTRESGVPDRFTGSGSGTDFTLTISSVQAEDLAVYYCQNDYSYPYTFGGGTKLEIKTKGPSRTVAAPSVFIFPPSDEQLKSGTASVVCLLNNFYPREAKVQWKVDNALQSGNSQESVTEQDSKDSTYSLSSTLTLSKADYEKHKVYACEVTHQGLSSPVTKSFNRGEC
heavy: EVQLQQSGPELVKPGASVKMSCKASGYTFTDYYMKWVKQSHGKSLEWIGDIIPSNGATFYNQKFKGKATLTVDRSSSTAYMHLNSLTSEDSAVYYCTRSHLLRASWFAYWGQGTLVTVSASEVQLVETGGSLVQPGKSLKLTCATSGFTFTKAWMHWVRQSPEKQLEWVAQIKDKSNSYATYYAESVKGRFTISRDDSKSTIYLQMNSLKEEDTAIYYCRGVYYALSPFDYWGQGVMVTVSSRTASTKGPSVFPLAPSSKSTSGGTAALGCLVKDYFPEPVTVSWNSGALTSGVHTFPAVLQSSGLYSLSSVVTVPSSSLGTQTYICNVNHKPSNTKVDKKVEPKSCDKTHTHHHHHH
notes: formula I and formula II chains; hinge and His-tag added C-terminally to formula II; also called 7G3 × 20G6
For B1, in [1], the Kd came to 7 nM, the koff stood at 0.00051 s⁻¹ and the kon stood at 72000 M⁻¹ s⁻¹. In experiment [2], the Kd is 26.3 nM, the off-rate (koff) came out at 0.000571 s⁻¹ and the kon was 21700 M⁻¹ s⁻¹. In addition, the “Activity EC50 [ng/ml], cytotoxic assay on THP-1 with human T cells” value (“Activity EC50 [ng/ml], cytotoxic assay” for short) in experiment [3] worked out at 18 ng/mL.

B2: CODV-Fab 7G3x4E7 antibody-like binding protein (bispecific antibody)
light: B1 light with V30E, S51P, F63I, D84E, S105P, I111L
heavy: EVQLQQSGPELVKPGASVKMSCKASGYTFTDYYMKWVKQSHGKSLEWIGDIIPSNGATFYNQKFKGKATLTVDRSSSTAYMHLNSLTSEDSAVYYCTRSHLLRASWFAYWGQGTLVTVSASEVQVVETGGSLVQPGKSLKLTCATSGFTFSNAWMHWVRQSPEKQLEWVAQIKDKSNNYATYYAESLKGRFTISRDDPKRSIYLQMNSLREEDTAIYYCRYVHYGIGYAMDAWGQGTSVTVSSRTASTKGPSVFPLAPSSKSTSGGTAALGCLVKDYFPEPVTVSWNSGALTSGVHTFPAVLQSSGLYSLSSVVTVPSSSLGTQTYICNVNHKPSNTKVDKKVEPKSCDKTHTHHHHHH
notes: also called 7G3 × 4E7
For B2, in [1], the Kd was determined as 16 nM, the off-rate constant (koff) stood at 0.0019 s⁻¹ and the kon turned out to be 120000 M⁻¹ s⁻¹. For the same molecule, the “Activity EC50 [ng/ml], cytotoxic assay” value in experiment [3] was determined as 12 ng/mL.

B3: CODV-Fab 7G3xhz4B4 antibody-like binding protein (bispecific antibody)
light: DVVMTQTPVSLSVSVGGRVSISCRSSQSLVHDNGNTYLSWSLQKPGKSPKVLIYKVSNRFSGVSSRFTGSGSGTDFTLKISSVQPDDLGVYYCGQGTQYPFTFGSGTKLEIKGQPKAAPDFVMTQSPSSLTVTAGEKVTMSCKSSQSLLNSGNQKNYLTWYLQKPGQPPKLLIYWASTRESGVPDRFTGSGSGTDFTLTISSVQAEDLAVYYCQNDYSYPYTFGGGTKLEIKTKGPSRTVAAPSVFIFPPSDEQLKSGTASVVCLLNNFYPREAKVQWKVDNALQSGNSQESVTEQDSKDSTYSLSSTLTLSKADYEKHKVYACEVTHQGLSSPVTKSFNRGEC
heavy: EVQLQQSGPELVKPGASVKMSCKASGYTFTDYYMKWVKQSHGKSLEWIGDIIPSNGATFYNQKFKGKATLTVDRSSSTAYMHLNSLTSEDSAVYYCTRSHLLRASWFAYWGQGTLVTVSASQVQLVETGGGLVKPGQSLKLTCATSGFTFSNAWMHWVRQSPEKGLEWVAQIKARSNNYATYYAESVKGRFTISRDDSKSTIYLQMNSLTPEDTAIYYCRGTYYASKPFDYWGQGVMVTVSSRTASTKGPSVFPLAPSSKSTSGGTAALGCLVKDYFPEPVTVSWNSGALTSGVHTFPAVLQSSGLYSLSSVVTVPSSSLGTQTYICNVNHKPSNTKVDKKVEPKSCDKTHTHHHHHH
notes: also called 7G3 × hz4B4 CODV-Fab
Regarding B3, the Kd in experiment [4] is 5.4 nM; in experiment [5] it was 0.1 nM. In experiment [6], the “Cytotoxic assay (THP cells) EC50 [pM]” value was determined as 26.7 pM.

B4: CODV-Fab 7G3x4B4 antibody-like binding protein (bispecific antibody)
light: B1 light with N32D, Y41S, K44R, S51V, F63T, S68T, D84E
heavy: B3 heavy with Q122E, G131R, K134Q, Q137R, G165Q, T210K, P211E
notes: also called 7G3 × 4B4
Regarding B4, in experiment [1], the equilibrium dissociation constant (Kd) turned out to be 17 nM, the off-rate (koff) is 0.0044 s⁻¹ and the kon was 270000 M⁻¹ s⁻¹. In addition, the “Activity EC50 [ng/ml], cytotoxic assay” value in [3] is 11 ng/mL.

B5: CODV-Fab hz20G6xhz7G3 antibody-like binding protein (bispecific antibody)
light: DIVMTQSPDSLAVSLGERATINCESSQSLLNSGNQKNYLTWYQQKPGQPPKPLIYWASTRESGVPDRFSGSGSGTDFTLTISSLQAEDVAVYYCQNDYSYPYTFGQGTKLEIKGGSGSSGSGGDIVMTQTPLSLSVTPGQPASISCKSSQSLVHNNANTYLSWYLQKPGQSPQSLIYKVSNRFSGVPDRFSGSGSGTDFTLKISRVEAEDVGVYYCGQGTQYPFTFGSGTKVEIKGGSGSSGSGGRTVAAPSVFIFPPSDEQLKSGTASVVCLLNNFYPREAKVQWKVDNALQSGNSQESVTEQDSKDSTYSLSSTLTLSKADYEKHKVYACEVTHQGLSSPVTKSFNRGEC
heavy: QVQLVESGGGVVQPGRSLRLSCAASGFTFTKAWMHWVRQAPGKQLEWVAQIKDKSNSYATYYADSVKGRFTISRDDSKNTLYLQMNSLRAEDTAVYYCRGVYYALSPFDYWGQGTLVTVSSEVQLVQSGAEVKKPGESLKISCKGSGYSFTDYYMKWARQMPGKGLEWMGDIIPSSGATFYNQKFKGQVTISADKSISTTYLQWSSLKASDTAMYYCARSHLLRASWFAYWGQGTMVTVSSASTKGPSVFPLAPSSKSTSGGTAALGCLVKDYFPEPVTVSWNSGALTSGVHTFPAVLQSSGLYSLSSVVTVPSSSLGTQTYICNVNHKPSNTKVDKKVEPKSCDKTHTHHHHHH
notes: also called hz20G6xhz7G3 CODV-Fab
Turning to B5, the “Cytotoxic assay (THP cells) EC50 [pM]” value in [7] was 2.1 pM. Moreover, in experiment [8], the “Jurkat-NFAT-Luc reporter, no target cells, activation at Cmax in relation to max. activation in assay with target cells (%)” value came out at 0.2% and the “Jurkat-NFAT-Luc reporter, with THP1 cells, EC50 (pM)” value stood at 561 pM. Moreover, in experiment [9], the “T cell activation with THP-1 target cells, CD4+ T cells (% CD69+ cells) EC50 (pM)” value was 1.4 pM and the “T cell activation with THP-1 target cells, CD8+ T cells (% CD69+ cells) EC50 (pM)” value amounted to 3.1 pM. In addition, in [10], the Kd is 9 nM. This molecule also yielded a dissociation constant Kd in experiment [11] of 0.2 nM.

B6: CODV-Fab-OL1 hz20G6xhz7G3 antibody-like binding protein (bispecific antibody, human IgG1, kappa, L234A L235A)
light: B5 light
heavy: not shown
chain: GSDKTHTCPPCPAPEAAGGPSVFLFPPKPKDTLMISRTPEVTCVVVDVSHEDPEVKFNWYVDGVEVHNAKTKPREEQYNSTYRVVSVLTVLHQDWLNGKEYKCKVSNKALPAPIEKTISKAKGQPREPQVCTLPPSRDELTKNQVSLSCAVKGFYPSDIAVEWESNGQPENNYKTTPPVLDSDGSFFLVSKLTVDKSRWQQGNVFSCSVMHEALHNHYTQKSLSLSPG
notes: formula I chain, formula III chain and Fc stump (Fc3); also called hz20G6xhz7G3 CODV-Fab-OL1; hz20G6xhz7G3 CODV-OL1
Turning to B6, in [8], the “Jurkat-NFAT-Luc reporter, no target cells, activation at Cmax in relation to max. activation in assay with target cells (%)” value came out at 0.4% and the “Jurkat-NFAT-Luc reporter, with THP1 cells, EC50 (pM)” value worked out at 320 pM. Further, in experiment [9], the “T cell activation with THP-1 target cells, CD4+ T cells (% CD69+ cells) EC50 (pM)” value worked out at 1 pM and the “T cell activation with THP-1 target cells, CD8+ T cells (% CD69+ cells) EC50 (pM)” value came out at 3.3 pM. In addition, in experiment [10], the equilibrium dissociation constant (Kd) worked out at 15 nM.

B7: CODV-Fab hz20G6x7G3 antibody-like binding protein (bispecific antibody)
light: DFVMTQSPSSLTVTAGEKVTMSCKSSQSLLNSGNQKNYLTWYLQKPGQPPKLLIYWASTRESGVPDRFTGSGSGTDFTLTISSVQAEDLAVYYCQNDYSYPYTFGGGTKLEIKGQPKAAPDIVMTQTPLSLSVTPGQPASISCKSSQSLVHNNGNTYLSWYLQKPGQSPQSLIYKVSNRFSGVPDRFSGSGSGTDFTLKISRVEAEDVGVYYCGQGTQYPFTFGSGTKVEIKTKGPSRTVAAPSVFIFPPSDEQLKSGTASVVCLLNNFYPREAKVQWKVDNALQSGNSQESVTEQDSKDSTYSLSSTLTLSKADYEKHKVYACEVTHQGLSSPVTKSFNRGEC
heavy: QVQLVESGGGVVQPGRSLRLSCAASGFTFTKAWMHWVRQAPGKQLEWVAQIKDKSNSYATYYADSVKGRFTISRDDSKNTLYLQMNSLRAEDTAVYYCRGVYYALSPFDYWGQGTLVTVSSSEVQLQQSGPELVKPGASVKMSCKASGYTFTDYYMKWVKQSHGKSLEWIGDIIPSNGATFYNQKFKGKATLTVDRSSSTAYMHLNSLTSEDSAVYYCTRSHLLRASWFAYWGQGTLVTVSARTASTKGPSVFPLAPSSKSTSGGTAALGCLVKDYFPEPVTVSWNSGALTSGVHTFPAVLQSSGLYSLSSVVTVPSSSLGTQTYICNVNHKPSNTKVDKKVEPKSCDKTHTHHHHHH
notes: also called hz20G6 × 7G3 CODV-Fab
Take B7: the dissociation constant (Kd) is 5 nM in experiment [4] and 0.6 nM in experiment [5]. Also, the “Cytotoxic assay (THP cells) EC50 [pM]” value in experiment [6] turned out to be 30.9 pM.

These data come from patent US20210292423A1 (published 2021).
